Measured values reported in article PMC10397247.
Values belong to the binder of their own block, whether it stands above or below them.

What was measured:
Test in all cases: two-hybrid library CCNG1;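 further: natural log of median RNA to DNA barcode read ratio; higher means stronger binding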
[1] = target: T1, P6bHq
T1 chain: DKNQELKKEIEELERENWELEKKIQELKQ

[2] = target: T2, P12bHq
T2 chain: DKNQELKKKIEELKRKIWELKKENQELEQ

[3] = target: T3, P5bHq
T3 chain: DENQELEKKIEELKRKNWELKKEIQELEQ

[4] = target: T4, P1bHq
T4 chain: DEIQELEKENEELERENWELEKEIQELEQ

[5] = target: T5, P4bHq
T5 chain: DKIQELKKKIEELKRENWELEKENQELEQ

[6] = target: T6, P8bHq
T6 chain: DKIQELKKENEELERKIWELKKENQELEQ

[7] = target: T7, P7bHq
T7 chain: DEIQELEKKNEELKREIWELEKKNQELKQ

[8] = target: T8, P11bHq
T8 chain: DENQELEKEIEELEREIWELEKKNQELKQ

[9] = target: T9, P2bHq
T9 chain: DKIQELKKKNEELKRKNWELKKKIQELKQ

[10] = target: T10, P9bHq
T10 chain: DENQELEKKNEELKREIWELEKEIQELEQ

[11] = target: T11, P3bHq
T11 chain: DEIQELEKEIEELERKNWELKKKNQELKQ

[12] = target: T12, 4H953-bH
T12 chain: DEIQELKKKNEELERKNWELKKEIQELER

[13] = target: T13, 4H3427-bH
T13 chain: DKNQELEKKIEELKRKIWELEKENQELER

[14] = target: T14, 4H968-bH
T14 chain: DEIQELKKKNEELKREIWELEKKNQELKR

[15] = target: T15, 4H346-bH
T15 chain: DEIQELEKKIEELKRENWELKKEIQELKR

[16] = target: T16, 4H170-bH
T16 chain: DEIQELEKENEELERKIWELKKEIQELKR

[17] = target: T17, 4H2702-bH
T17 chain: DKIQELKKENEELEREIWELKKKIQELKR

[18] = target: T18, 4H2586-bH
T18 chain: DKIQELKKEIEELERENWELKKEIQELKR

[19] = target: T19, 4H797-bH
T19 chain: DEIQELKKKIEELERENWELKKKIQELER

[20] = target: T20, 4H855-bH
T20 chain: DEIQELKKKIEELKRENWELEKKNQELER

[21] = target: T21, 4H2233-bH
T21 chain: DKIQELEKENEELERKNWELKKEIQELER

[22] = target: T22, 4H112-bH
T22 chain: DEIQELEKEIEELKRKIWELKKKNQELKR

[23] = target: T23, 4H780-bH
T23 chain: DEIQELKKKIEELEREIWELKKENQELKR

[24] = target: T24, 4H3926-bH
T24 chain: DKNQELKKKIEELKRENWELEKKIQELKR

[25] = target: T25, 4H4073-bH
T25 chain: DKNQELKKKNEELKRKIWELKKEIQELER

[26] = target: T26, 4H575-bH
T26 chain: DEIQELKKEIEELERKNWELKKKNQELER

[27] = target: T27, 4H118-bH
T27 chain: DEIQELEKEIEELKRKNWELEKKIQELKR

[28] = target: T28, 4H3010-bH
T28 chain: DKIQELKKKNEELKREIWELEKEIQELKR

[29] = target: T29, 4H754-bH
T29 chain: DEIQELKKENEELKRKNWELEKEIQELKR

[30] = target: T30, 4H457-bH
T30 chain: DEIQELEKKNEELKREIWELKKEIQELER

[31] = target: T31, 4H1158-bH
T31 chain: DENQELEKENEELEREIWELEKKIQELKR

[32] = target: T32, 4H918-bH
T32 chain: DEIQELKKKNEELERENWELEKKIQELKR

[33] = target: T33, 4H2673-bH
T33 chain: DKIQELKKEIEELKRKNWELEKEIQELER

[34] = target: T34, 4H2627-bH
T34 chain: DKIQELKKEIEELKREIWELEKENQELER

[35] = target: T35, 4H3112-bH
T35 chain: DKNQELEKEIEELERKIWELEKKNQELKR

[36] = target: T36, 4H1831-bH
T36 chain: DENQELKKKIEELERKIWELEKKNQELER

[37] = target: T37, 4H683-bH
T37 chain: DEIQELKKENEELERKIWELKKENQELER

[38] = target: T38, O14
T38 chain: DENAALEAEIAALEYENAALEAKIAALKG

[39] = target: T39, O13
T39 chain: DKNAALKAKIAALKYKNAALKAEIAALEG

[40] = target: T40, O5
T40 chain: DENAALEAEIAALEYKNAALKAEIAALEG

[41] = target: T41, O8
T41 chain: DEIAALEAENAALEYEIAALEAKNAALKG

[42] = target: T42, O6
T42 chain: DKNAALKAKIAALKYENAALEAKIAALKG

[43] = target: T43, O11
T43 chain: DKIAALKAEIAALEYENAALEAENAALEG

[44] = target: T44, O7
T44 chain: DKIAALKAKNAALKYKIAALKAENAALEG

[45] = target: T45, O9
T45 chain: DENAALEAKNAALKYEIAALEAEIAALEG

[46] = target: T46, O12
T46 chain: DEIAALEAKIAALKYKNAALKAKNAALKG

[47] = target: T47, O3
T47 chain: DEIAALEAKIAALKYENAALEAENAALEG

[48] = target: T48, O4
T48 chain: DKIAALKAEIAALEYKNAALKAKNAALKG

[49] = target: T49, O2
T49 chain: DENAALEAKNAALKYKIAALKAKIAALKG

[50] = target: T50, O16
T50 chain: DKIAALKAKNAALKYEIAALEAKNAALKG

[51] = target: T51, O15
T51 chain: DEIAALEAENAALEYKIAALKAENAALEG

[52] = target: T52, O10
T52 chain: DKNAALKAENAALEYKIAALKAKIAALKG

[53] = target: T53, P4A-bH
T53 chain: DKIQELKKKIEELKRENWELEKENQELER

[54] = target: T54, P6A-bH
T54 chain: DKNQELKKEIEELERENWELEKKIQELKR

[55] = target: T55, P1A-bH
T55 chain: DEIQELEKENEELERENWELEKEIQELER

[56] = target: T56, P11A-bH
T56 chain: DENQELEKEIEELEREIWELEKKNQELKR

[57] = target: T57, P8A-bH
T57 chain: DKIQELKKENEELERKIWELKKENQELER

[58] = target: T58, P7A-bH
T58 chain: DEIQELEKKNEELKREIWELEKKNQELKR

[59] = target: T59, P2A-bH
T59 chain: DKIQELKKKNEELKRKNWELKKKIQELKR

[60] = target: T60, P5A-bH
T60 chain: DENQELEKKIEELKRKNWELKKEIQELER

[61] = target: T61, P3A-bH
T61 chain: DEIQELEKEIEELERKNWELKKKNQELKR

[62] = target: T62, P12A-bH
T62 chain: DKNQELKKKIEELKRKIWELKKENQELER

interaction score [1]: 0.74
interaction score [2]: 1.78
interaction score [3]: 0.352
interaction score [4]: 0.41
interaction score [5]: 1.65
interaction score [6]: 0.862
interaction score [7]: -1.22
interaction score [8]: 1.25
interaction score [9]: 0.67
interaction score [10]: 0.854
interaction score [11]: 1.18
Binder: DENQELEKEIEELEREIWELEKKNQELKQ [P11bHq]

interaction score [53]: 0.192
interaction score [54]: 0.998
interaction score [55]: 1.06
interaction score [56]: -0.118
interaction score [57]: -0.68
interaction score [58]: 0.686
interaction score [59]: -0.586
interaction score [60]: -0.49
interaction score [61]: 0.247
interaction score [62]: 1.15
Binder: DKNQELKKENEELERKIWELKKKIQELKR [P10A-bH]

The next lines start with the binder.

Binder: DEIQELEKEIEELKRKIWELKKKNQELKR [4H112-bH]
interaction score [12]: -0.228
interaction score [13]: 1.48
interaction score [14]: 0.0767
interaction score [15]: 0.154
interaction score [16]: -0.736
interaction score [17]: 0.179
interaction score [18]: 0.807
interaction score [19]: -0.295
interaction score [20]: -0.0783
interaction score [21]: -0.606
interaction score [22]: 1.65
interaction score [23]: 0.211
interaction score [24]: 0.23
interaction score [25]: 1.39
interaction score [26]: -0.63
interaction score [27]: 0.444
interaction score [28]: 1.49
interaction score [29]: -0.515
interaction score [30]: 1.45
interaction score [31]: 1.45
interaction score [32]: -0.152
interaction score [33]: 0.53
interaction score [34]: 1.4
interaction score [35]: 1.27
interaction score [36]: 0.143
interaction score [37]: 0.914

Binder: DKNAALKAENAALEYKIAALKAKIAALKG [O10]
interaction score [38]: -2.41
interaction score [39]: -1.79
interaction score [40]: -0.483
interaction score [41]: -1.57
interaction score [42]: -2.48
interaction score [43]: -1.61
interaction score [44]: -2.17
interaction score [45]: 2.21
interaction score [46]: -2.06
interaction score [47]: -1.83
interaction score [48]: -1.67
interaction score [49]: -0.272
interaction score [50]: -1.79
interaction score [51]: -1.1
interaction score [52]: -2.12
